Assay results from patent US20220289819A1 (GREEN CROSS, published 2022).

B1: hCEACAM1-Fc, P13688 35-428 (Fc fusion, not shown: a dimerising Fc or GST)
chain: QLTTESMPFNVAEGKEVLLLVHNLPQQLFGYSWYKGERVDGNRQIVGYAIGTQQATPGPANSGRETIYPNASLLIQNVTQNDTGFYTLQVIKSDLVNEEATGQFHVYPELPKPSISSNNSNPVEDKDAVAFTCEPETQDTTYLWWINNQSLPVSPRLQLSNGNRTLTLLSVTRNDTGPYECEIQNPVSANRSDPVTLNVTYGPDTPTISPSDTYYRPGANLSLSCYAASNPPAQYSWLINGTFQQSTQELFIPNITVNNSGSYTCHANNSVTGCNRTTVKTIIVTELSPVVAKPQIKASKTTVTGDKDSVNLTCSTNDTGISIRWFFKNQSLPSSERMKLSQGNTTLSINPVKREDAGTYWCEVFNPISKNQSDPIMLNVNYNALPQENGLSPG
modifications: here or on the partner: biotin-labeled when used as the soluble partner (sites not given)
B2: hCEACAM1-Fc (Fc fusion)
chain: B1 chain
modifications: biotin-labeled when used as the soluble partner (sites not given)
notes: also called biotin-labeled hCEACAM1-Fc; not shown: pr
B3: anti-CEACAM1 antibody (antibody, V domains shown)
VH: EVQLLESGGGLVQPGGSLRLSCAASGFTFSNYAMSWVRQAPGKGLEWVSVISHGGGSIYYADSVKGRLTISRDNSKNTLYLQMNSLRAEDTAVYYCARDPTKGYAPTFDYWGQGTLVTVSS
VL: QSVLTQPPSASGTPGQRVTISCSGSSSNIGNNYVSWYQQLPGTAPKLLIYADSRRPSGVPDRFSGSKSGTSASLAISGLRSEDEADYYCGAWDLSLNGYVFGGGTKLTVLG
notes: also called anti-CEACAM1 antibody according to an embodiment

Columns and labels:
[1] = molecular target: T1, hCEACAM6-Fc (human), P40199; experiment: ELISA, coated hCEACAM6-Fc (2.5 µg/mL), biotin-labeled hCEACAM1-Fc titrated from 150 µg/mL; conditions: remark: other sources report otherwise
T1 chain: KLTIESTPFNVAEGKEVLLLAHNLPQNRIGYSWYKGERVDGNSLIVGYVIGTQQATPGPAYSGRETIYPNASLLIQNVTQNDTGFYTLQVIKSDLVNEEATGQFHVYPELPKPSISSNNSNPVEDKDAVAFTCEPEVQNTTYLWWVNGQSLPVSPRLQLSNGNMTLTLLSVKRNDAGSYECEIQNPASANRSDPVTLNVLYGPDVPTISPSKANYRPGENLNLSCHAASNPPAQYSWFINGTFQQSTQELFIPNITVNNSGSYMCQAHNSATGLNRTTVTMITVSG

[2] = molecular target: T1, hCEACAM6-Fc (human), P40199; experiment: ELISA, hCEACAM6-Fc coated, biotin-labeled hCEACAM1-Fc titrated, streptavidin-peroxidase detection; conditions: remark: other sources report otherwise
[3] = molecular target: the molecule itself; experiment: ELISA, coated hCEACAM1-Fc (2.5 µg/mL), biotin-labeled hCEACAM1-Fc titrated from 150 µg/mL
Method: (§1) The hCEACAM1-Fc prepared in Example 5.1 was diluted with PBS to a concentration of 2.5 μg/mL, and then 100 μL each of the resultant was added into a NUNC immuno module (NUNC, 468667) plate and coated at 4° C. overnight. On the next day, after washing with PBS (to which 0.05% Tween 20 was added), 300 μL of PBS (to which 1% BSA was added) was added to each well of the coated plate, and blocking was performed by reacting at room temperature for 2 hours. In addition, after washing 3 times with PBS (to which 0.05% Tween 20 was added), biotin-labeled hCEACAM1-Fc was serially diluted 3-fold starting from a concentration of 150 μg/mL, and added into 11 wells in the plate coated with hCEACAM1-Fc. The last well was added only with PBS to which 1% BSA was added. The wells were reacted at 37° C. for 1 hour. After 1 hour, each well was washed 3 times by adding 300 μL of PBS (to which 0.05% Tween 20 was added), and then streptavidin-peroxidase polymer (Sigma, S2438-250UG) was diluted at a 1:5,000 ratio in PBS (to which 1% BSA was added), 100 μL each of the resultant was added into each well, and reacted at 37° C. for 40 minutes. […] To terminate the reaction, an equal amount of sulfuric acid (Sigma-Aldrich, 339741) was added and the OD value was measured at 450 nm wavelength using an ELISA reader.

[4] = molecular target: the molecule itself; experiment: ELISA, hCEACAM1-Fc coated, biotin-labeled hCEACAM1-Fc titrated, streptavidin-peroxidase detection
Method: as §1

[5] = molecular target: T2, hCEACAM1 (R&D Systems, Cat. No. 2244-CM) (human, UniProt P13688 35-428); experiment: BLI (Octet QKe), hCEACAM1 on anti-His biosensor, antibody 6.25-400 nM in solution
T2 construct: Anti-His (His1K) biosensors were used, which implies a His tag
T2 sequence: B1 chain
Method: Quantitative binding strength of the anti-CEACAM1 antibody to CEACAM1 was measured using the Octet QKe (Pall ForteBio). The anti-CEACAM1 antibody was subjected to a ½ concentration dilution 6 times at a concentration of 400 nM, and the antibodies at concentrations of 400 nM, 200 nM, 100 nM, 50 nM, 25 nM, 12.5 nM, and 6.25 nM were added into a Greiner 96-well-plate (Greiner, Cat. No. 655209) in an amount of 200 μL each in a row, and the last well was added at a concentration of 0 nM. In another row, hCEACAM1 (R&D Systems, Cat. No. 2244-CM) was diluted to a concentration of […], and was added in an amount of 200 μL each in a row.
Washing buffer, neutralization buffer, and baseline buffer were diluted 10 times with Reagent/Kinetics buffer (10×) (Fortebio, Cat. No. 18-1092) and was added in an amount of 200 μL in each row, and regeneration buffer was added in an amount of 200 μL in a row. A separate Greiner 96-well-plate was prepared, and Reagent/Kinetics buffer (IX) was added in an amount of 200 μL to as many wells as the number of biosensors to be used, and the Biosensors/Anti-His(His1K) (Fortebio, Cat. No. 18)-5120) Cassette was mounted.

hCEACAM1-Fc [6] = molecular target: B2; experiment: competition ELISA: antibody titrated from 60 µg/mL, mixed with biotin-labeled hCEACAM1-Fc, added to coated hCEACAM1-Fc
Method: (§2) In another 96-well-plate, anti-CEACAM1 antibody was serially diluted 2-fold starting from a concentration of 60 μg/ml, and added into 11 wells, and the last well was added only with PBS to which 1% BSA was added, and then biotin-labeled hCEACAM1-Fc was added in the same amount as the anti-CEACAM1 antibody (which was diluted to 0.5 μg/mL), and reacted at room temperature for 1 hour. After 1 hour, 100 μL each of a mixture of the anti-CEACAM1 antibody and the biotin-labeled hCEACAM1-Fc were added to the blocked plate and reacted again at room temperature for 1 hour.
(§3) After 1 hour, each well was washed 3 times by adding 300 μL of PBS (to which 0.05% Tween 20 was added) thereto, and then streptavidin-peroxidase polymer (Sigma, S2438-250UG) was diluted at a 1:5,000 ratio in PBS (to which 1% BSA was added), 100 μL each of the resultant was added to each well, and reacted at 37° C. for 40 minutes. Each well where the reaction was completed was washed 3 times by adding 300 μL of PBS (to which 0.05% Tween 20 was added), and then 100 μL of TMB microwell peroxidase substrate (KPL, 50-76-03) was added thereto and reacted for 5 minutes. To terminate the reaction, an equal amount of sulfuric acid (Sigma-Aldrich, 339741) was added and the OD value was measured at 450 nm wavelength using an ELISA reader.

hCEACAM1-Fc [7] = molecular target: B2; experiment: competition ELISA: antibody titrated from 60 µg/mL, mixed with biotin-labeled hCEACAM1-Fc, added to coated hCEACAM6-Fc
Method: (§4) In another 96-well-plate, the anti-CEACAM1 antibody was serially diluted 2-fold starting from a concentration of 60 μg/mL and added into 11 wells, and the last well was added with only PBS (to which 1% BSA was added), and then biotin-labeled hCEACAM 1-Fc was added in the same amount as the diluted anti-CEACAM1 antibody to a concentration of 0.5 μg/mL, and reacted at room temperature for 1 hour. After 1 hour, 100 μL each of a mixture of the anti-CEACAM1 antibody and the biotin-labeled hCEACAM1-Fc were added to the blocked plate and reacted again at room temperature for 1 hour.
(§5) After 1 hour, each well was washed 3 times by adding 300 μL of PBS (to which 0.05% Tween 20 was added) thereto, and then streptavidin-peroxidase polymer (Sigma, S2438-250UG) was diluted at a 1:5,000 ratio in PBS (to which 1% BSA was added), and 100 μL each of the resultant was added to each well, and reacted at 37° C. for 40 minutes. Each well where the reaction was completed was washed 3 by adding 300 μL of PBS (to which 0.05% Tween 20 was added) thereto, and then 100 μL each of TMB microwell peroxidase substrate (KPL, 50-76-03) was added thereto, and reacted for 5 minutes. To terminate the reaction, an equal amount of sulfuric acid (Sigma-Aldrich, 339741) was added and the OD value was measured at 450 nm wavelength using an ELISA reader.

[8] = molecular target: T2, hCEACAM1 (R&D Systems, Cat. No. 2244-CM); experiment: not stated at this place; presumably the BLI of Experimental Example 4; summary statement in the description, no assay named
hCEACAM1-Fc [9] = molecular target: B2; experiment: competition ELISA, hCEACAM1-Fc coated, antibody pre-mixed with hCCM1-Fc-biotin 500 ng/mL; blocked interaction hCEACAM1-Fc/hCEACAM1-Fc
Method: as §2, §3

hCEACAM1-Fc [10] = molecular target: B2; experiment: competition ELISA, hCEACAM6-Fc coated, antibody pre-mixed with biotin-labeled hCEACAM1-Fc; blocked interaction hCEACAM1-Fc/hCEACAM6-Fc
Method: as §4, §5

B1
EC50 [1]: 0.305 µg/mL
EC50 (read off the curve) [2]: 0.3 µg/mL

B2
EC50 [3]: 0.286 µg/mL
EC50 (read off the curve) [4]: ~0.3 µg/mL

B3
Kd [5]: 3.39 nM
koff [5]: 0.000567 s⁻¹
kon [5]: 163000 M⁻¹ s⁻¹
IC50 (hCEACAM1-Fc [6]): 1.05 µg/mL
IC50 (hCEACAM1-Fc [7]): 0.795 µg/mL
Kd [8]: 3.36 nM
IC50 (read off the curve) (hCEACAM1-Fc [9]): ~0.8 µg/mL
IC50 (read off the curve) (hCEACAM1-Fc [10]): ~1 µg/mL
